From paper PMC11322631 come the findings set out here.

What is called stoichiometry N is a count of units in the complex or per binding partner.

The target in assay [1] is green-light absorbing proteorhodopsin A18L variant with uncleavable N-terminal signal peptide (marine γ-proteobacteria). The assay can be described thus: cryo-EM structure; single particle cryo-EM of purified oligomers in 20 mM BTP-HCl pH 7.5, 150 mM NaCl, 0.25% Cymal-5; GPR-A18L at 4.2 mg/mL, PO at 4.0 mg/mL.
Assay [2] has the same target. Put plainly: native gel or EMSA; BN-PAGE, NativePAGE 4-16% Bis-Tris gel, about 5 µg protein, 0.4% Cymal-5 and 0.25% Coomassie G-250 in the sample, run in ice water. A general note: Mobility shift assays separate free from complexed probe on a gel.
The target of assay [3] is proteoopsin, retinal-free N-terminally truncated green-light absorbing proteorhodopsin lacking the signal peptide (marine γ-proteobacteria). The assay can be described thus: cryo-EM structure; single particle cryo-EM of purified oligomers in 20 mM BTP-HCl pH 7.5, 150 mM NaCl, 0.25% Cymal-5; GPR-A18L at 4.2 mg/mL, PO at 4.0 mg/mL.

Several values for one entry are separate records, joined by “and”; a condition that tells them apart may be missing. Identical values can stand only once.

In the case of “green-light absorbing proteorhodopsin A18L variant with uncleavable N-terminal signal peptide (natural protein)”, the stoichiometry N in assay [1] was 5 and 6; in assay [2], 5 and 6.
As to “proteoopsin, retinal-free N-terminally truncated green-light absorbing proteorhodopsin lacking the signal peptide (natural protein)”, the stoichiometry N in assay [3] stood at 5.
